# Laboratory results as given in US20140142023A1, “Pharmaceutical Composition for Treating A Metabolic Syndrome” (SANOFI, priority 2011, published 2014).
# Like-named read-outs stand apart in the source and are kept apart here.
# Experiments:
# [1] = tested on: db/db mice; assay: Fed blood glucose in db/db mice (age of 6 weeks); format: in vivo; conditions: fed conditions, up to 4 weeks, AVE0010 0.05, FGF-21 0.75 mg/kg/day s.c. or combined
# Method: (§1) Female db/db mice (BKS.Cg-m+/+Leprdb/J, age of 6 weeks) were treated with vehicle (PBS), 0.05 mg·kg^−1·day^−1 AVE0010, 0.75 mg·kg^−1·day^−1 recombinant human FGF-21 (SEQ ID NO: 2) or a combined dose of FGF-21 (SEQ ID NO: 2) and AVE0010 (0.75+0.05 mg·kg^−1·day^−1) subcutaneously once daily. Mice were fed ad libitum. Before the first treatment, after one week and 4 weeks blood glucose and HbA1c were measured under fed conditions. After 21 days of treatment an oral glucose tolerance test (OGTT) was initiated. Fasted mice were orally challenged with 2 g·kg^−1 glucose solution and blood glucose was measured at indicated time points.
# [2] = tested on: db/db mice; assay: Oral glucose tolerance test (OGTT) in db/db mice after 21 days; format: in vivo; conditions: after 21 days of treatment, 2 g/kg oral glucose, vs vehicle treated obese control
# Method: as §1
# [3] = tested on: mouse 3T3-L1 adipocytes; conditions: in the presence and absence of insulin; cited from earlier work
# [4] = tested on: ob/ob mice, db/db mice and obese ZDF rats; conditions: cited from earlier work
# [5] = tested on: diabetic rhesus monkeys; conditions: 6 weeks; cited from earlier work
# [6] = ob/ob and db/db mice and 8 week old ZDF rats, dose dependent (WO03/011213)
# [7] = ob/ob, db/db mice and obese ZDF rats (Kharitonenkov et al. 2005)
molecule,measurement,setting,value
"FGF-21: recombinant human FGF-21 (SEQ ID NO: 2): deletion of amino acids 1-28 of human FGF-21 and additional N-terminal glycine (protein, G linked to fragment of human FGF21 from H29 to S209) GHPIPDSSPLLQFGGQVRQRYLYTDDAQQTEAHLEIREDGTVGGAADQSPESLLQLKALKPGVIQILGVKTSRFLCQRPDGALYGSLHFDPEACSFRELLLEDGYNVYQSEAHGLPLHLPGNKSPHRDPAPRGPARFLPLPGLPPAPPEPPGILAPQPPDVGSSDPLSMVGPSQGRSPSYAS",blood glucose,[1],inhibition of blood glucose increase
same,glucose tolerance (OGTT),[2],small improvement
same,glucose uptake,[3],stimulate
same,"mitogenicity, hypoglycemia, or weight gain","[4]; any dose tested, diabetic or healthy animals",did not induce
same,food intake or body weight/composition,"[4]; diabetic or lean mice and rats, 2 weeks of administration",did not affect
same,fed and fasting blood glucose,[4]; [6],decrease
same,glucagon levels,[4]; [6],decrease
same,triglycerides,[4]; [6],decrease
same,blood glucose,[4]; [7],significantly lowered
same,fasting insulin levels,[4]; [7],decreased
same,glucose clearance during an oral glucose tolerance test,[4]; [7],improved
same,triglycerides,[4]; [7],significantly lowered
same,HDL-cholesterol,[5],increased
same,LDL-cholesterol,[5],significantly lowered
same,body weight,[5],slightly but significantly decreased
same,fasting plasma glucose,[5],reduced
same,fructosamine,[5],reduced
same,glucagone levels,[5],reduced
same,hypoglycemia,[5],not observed
same,insulin,[5],reduced
same,triglyceride,[5],reduced
